Measured values taken from paper PMC8563947 (Scientific Reports, 2021).
Blank lines part the entries; values can stand above or below the binder they belong to.

Legend:
[1] = biological target: T1, green fluorescent protein (Aequorea victoria (assumed; GFP variant …, UniProt P42212 = GFP); assay: SPR; Biacore T-200, multicycle; 265-274 RU of recombinant GFP immobilised on CM5 chip; Nbs flowed in five dilutions; HBS-EP+ buffer, 25 °C, 30 μL/min; settings: both partners purified
T1 construct: green fluorescent protein (GFP, 27 kDa); the GFP construct may be there; also called GFP; recombinant GFP; source: E. coli BL21 (DE3), purified (Ni-NTA agarose)

[2] = biological target: T1, green fluorescent protein; assay: as above; settings: both partners purified; remark: listed apart in the source

Kd [1]: 16.4 nM
koff [1]: 0.0759 s⁻¹
kon [1]: 4.62e+06 M⁻¹ s⁻¹
B1: anti-GFP mutant nanobody Y37A without peptide barcode (VHH)
VHH: QVQLVESGGALVQPGGSLRLSCAASGFPVNRYSMRWARQAPGKEREWVAGMSSAGDRSSYEDSVKGRFTISRDDARNTVYLQMNSLKPEDTAVYYCNVNVGFEYWGQGTQVTVSS
notes: as the VHH chain of m2 with the stated change; source: P. pastoris, purified (Ni-NTA agarose)

Kd [1]: 0.722 nM
koff [1]: 0.00606 s⁻¹
kon [1]: 8.39e+06 M⁻¹ s⁻¹
B2: anti-GFP mutant nanobody W47A without peptide barcode (VHH)
VHH: QVQLVESGGALVQPGGSLRLSCAASGFPVNRYSMRWYRQAPGKEREAVAGMSSAGDRSSYEDSVKGRFTISRDDARNTVYLQMNSLKPEDTAVYYCNVNVGFEYWGQGTQVTVSS
notes: as for B1

binding result [1]: no binding
B3: anti-GFP mutant nanobody R35A without peptide barcode (VHH)
VHH: QVQLVESGGALVQPGGSLRLSCAASGFPVNRYSMAWYRQAPGKEREWVAGMSSAGDRSSYEDSVKGRFTISRDDARNTVYLQMNSLKPEDTAVYYCNVNVGFEYWGQGTQVTVSS
notes: as for B1

Kd [2]: 0.121 nM
koff [2]: 0.000628 s⁻¹
kon [2]: 5.2e+06 M⁻¹ s⁻¹
B4: anti-GFP mutant nanobody F102A without peptide barcode (VHH)
VHH: QVQLVESGGALVQPGGSLRLSCAASGFPVNRYSMRWYRQAPGKEREWVAGMSSAGDRSSYEDSVKGRFTISRDDARNTVYLQMNSLKPEDTAVYYCNVNVGAEYWGQGTQVTVSS
notes: as the VHH chain of m2 with the stated change; source: Pichia pastoris GS115, culture medium, purified (His SpinTrap)

binding result [1]: no binding
B5: anti-GFP mutant nanobody G50A without peptide barcode (VHH)
VHH: QVQLVESGGALVQPGGSLRLSCAASGFPVNRYSMRWYRQAPGKEREWVAAMSSAGDRSSYEDSVKGRFTISRDDARNTVYLQMNSLKPEDTAVYYCNVNVGFEYWGQGTQVTVSS
notes: as for B1

binding result [1]: no binding
B6: anti-GFP mutant nanobody E103A without peptide barcode (VHH)
VHH: QVQLVESGGALVQPGGSLRLSCAASGFPVNRYSMRWYRQAPGKEREWVAGMSSAGDRSSYEDSVKGRFTISRDDARNTVYLQMNSLKPEDTAVYYCNVNVGFAYWGQGTQVTVSS
notes: as for B1

Kd [2]: 0.02 nM
koff [2]: 6.72e-05 s⁻¹
kon [2]: 3.42e+06 M⁻¹ s⁻¹
B7: anti-GFP mutant nanobody R57A without peptide barcode (VHH)
VHH: QVQLVESGGALVQPGGSLRLSCAASGFPVNRYSMRWYRQAPGKEREWVAGMSSAGDASSYEDSVKGRFTISRDDARNTVYLQMNSLKPEDTAVYYCNVNVGFEYWGQGTQVTVSS
notes: as for B4
